Laboratory results as given in patent US20070244048A1 (published 2007).
*: point of attachment. (PEG)2 40 kDa = branched PEG of 40 kDa linked via the Cys side-chain thiol (code C2 = Cys(PEG)2 40 kDa); Succinimide(1-Et,3-yl) = CCN1C(=O)CC(*)C1=O; Palmitoyl = CCCCCCCCCCCCCCCC(=O)*

T1: mouse NMUR1-ATG (mouse, UniProt O55040 1-428)
T1 sequence (looked up): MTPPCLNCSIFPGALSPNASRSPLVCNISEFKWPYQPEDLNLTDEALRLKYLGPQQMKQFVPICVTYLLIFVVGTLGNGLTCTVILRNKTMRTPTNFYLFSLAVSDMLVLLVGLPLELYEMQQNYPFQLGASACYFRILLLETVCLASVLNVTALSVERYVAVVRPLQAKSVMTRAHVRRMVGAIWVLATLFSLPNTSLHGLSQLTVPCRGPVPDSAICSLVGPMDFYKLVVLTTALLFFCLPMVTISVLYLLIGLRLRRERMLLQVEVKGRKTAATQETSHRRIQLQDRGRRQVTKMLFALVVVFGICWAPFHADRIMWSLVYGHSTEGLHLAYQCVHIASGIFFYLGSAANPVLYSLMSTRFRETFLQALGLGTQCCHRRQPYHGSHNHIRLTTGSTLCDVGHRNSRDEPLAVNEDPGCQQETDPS

T2: mouse NMUR1-CTG (mouse, UniProt O55040 1-428)
T2 sequence (looked up): T1 sequence (looked up)

T3: rat NMUR1-ATG (rat, UniProt Q9JJI5 1-425)
T3 sequence (looked up): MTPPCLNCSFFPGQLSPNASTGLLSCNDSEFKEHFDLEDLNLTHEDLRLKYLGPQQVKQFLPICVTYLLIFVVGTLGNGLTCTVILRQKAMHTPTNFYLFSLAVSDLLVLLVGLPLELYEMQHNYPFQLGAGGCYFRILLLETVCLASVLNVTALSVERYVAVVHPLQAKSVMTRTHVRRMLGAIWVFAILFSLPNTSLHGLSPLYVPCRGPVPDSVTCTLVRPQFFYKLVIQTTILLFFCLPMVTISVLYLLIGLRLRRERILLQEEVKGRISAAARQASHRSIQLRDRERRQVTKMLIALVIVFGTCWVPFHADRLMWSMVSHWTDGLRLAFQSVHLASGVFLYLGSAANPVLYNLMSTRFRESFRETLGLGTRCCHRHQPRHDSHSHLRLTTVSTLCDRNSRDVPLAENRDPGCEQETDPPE

T4: rat NMUR1-TTG (rat, UniProt Q9JJI5 1-425)
T4 sequence (looked up): T3 sequence (looked up)

T5: human NMUR1 (human, UniProt Q9HB89 1-426)
T5 sequence (looked up): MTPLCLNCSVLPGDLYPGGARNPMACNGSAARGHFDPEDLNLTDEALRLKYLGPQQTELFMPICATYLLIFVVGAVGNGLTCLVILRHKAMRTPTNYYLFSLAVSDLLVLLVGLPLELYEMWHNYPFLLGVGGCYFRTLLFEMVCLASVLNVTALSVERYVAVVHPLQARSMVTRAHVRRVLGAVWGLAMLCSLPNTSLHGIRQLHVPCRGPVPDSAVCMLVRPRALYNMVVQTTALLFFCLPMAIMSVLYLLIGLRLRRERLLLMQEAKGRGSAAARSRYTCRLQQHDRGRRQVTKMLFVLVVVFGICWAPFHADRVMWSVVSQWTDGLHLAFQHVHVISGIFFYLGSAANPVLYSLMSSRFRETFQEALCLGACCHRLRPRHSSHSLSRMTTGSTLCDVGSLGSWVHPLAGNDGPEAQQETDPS

B1: NMU22 (peptide)
peptide: Ac-C(Succinimide(1-Et,3-yl))C(Succinimide(1-Et,3-yl))FRVDEEFQSPFASQSRGYFLFRPRN-NH2
B2: NMU24 (peptide)
peptide: Palmitoyl-C(Succinimide(1-Et,3-yl))FRVDEEFQSPFASQSRGYFLFRPRN-NH2
B3: NMU20 (peptide)
peptide: Ac-C((PEG)2 40 kDa)FQSPFASQSRGYFLFRPRN-NH2
B4: NMU19 (peptide)
peptide: Ac-C(Succinimide(1-Et,3-yl))FQSPFASQSRGYFLFRPRN-NH2
SMILES: CCN1C(=O)CC(SC[C@H](NC(C)=O)C(=O)N[C@@H](Cc2ccccc2)C(=O)N[C@@H](CCC(N)=O)C(=O)N[C@@H](CO)C(=O)N2CCC[C@H]2C(=O)N[C@@H](Cc2ccccc2)C(=O)N[C@@H](C)C(=O)N[C@@H](CO)C(=O)N[C@@H](CCC(N)=O)C(=O)N[C@@H](CO)C(=O)N[C@@H](CCCNC(=N)N)C(=O)NCC(=O)N[C@@H](Cc2ccc(O)cc2)C(=O)N[C@@H](Cc2ccccc2)C(=O)N[C@@H](CC(C)C)C(=O)N[C@@H](Cc2ccccc2)C(=O)N[C@@H](CCCNC(=N)N)C(=O)N2CCC[C@H]2C(=O)N[C@@H](CCCNC(=N)N)C(=O)N[C@@H](CC(N)=O)C(N)=O)C1=O
B5: NMU23 (peptide)
peptide: Ac-C(PEG 20 kDa)C(PEG 20 kDa)FRVDEEFQSPFASQSRGYFLFRPRN-NH2
B6: NMU21 (peptide)
peptide: Ac-C(PEG 20 kDa)FRVDEEFQSPFASQSRGYFLFRPRN-NH2

Target: T1, mouse NMUR1-ATG
Assay: cell-based or functional assay

% Activity (FLIPR) [%] | EC50 (FLIPR) [nM] | Binder
100 | 6.2 | B1
81.4 | 1000 | B2
100 | 12.7 | B3
100 | 7.9 | B4
100 | 14 | B5
100 | 9.1 | B6

Target: T2, mouse NMUR1-CTG
Assay: cell-based or functional assay

% Activity (FLIPR) [%] | EC50 (FLIPR) [nM] | Binder
100 | 43.5 | B1
56.1 | 591 | B2
65.4 | 480 | B3
111 | 22.5 | B4
50.9 | 770 | B5
90.8 | 56.3 | B6

Target: mouse NMUR2 (mouse, UniProt Q8BZ39 1-395)
Assay: cell-based or functional assay

Sequence of mouse NMUR2 (Q8BZ39 whole entry): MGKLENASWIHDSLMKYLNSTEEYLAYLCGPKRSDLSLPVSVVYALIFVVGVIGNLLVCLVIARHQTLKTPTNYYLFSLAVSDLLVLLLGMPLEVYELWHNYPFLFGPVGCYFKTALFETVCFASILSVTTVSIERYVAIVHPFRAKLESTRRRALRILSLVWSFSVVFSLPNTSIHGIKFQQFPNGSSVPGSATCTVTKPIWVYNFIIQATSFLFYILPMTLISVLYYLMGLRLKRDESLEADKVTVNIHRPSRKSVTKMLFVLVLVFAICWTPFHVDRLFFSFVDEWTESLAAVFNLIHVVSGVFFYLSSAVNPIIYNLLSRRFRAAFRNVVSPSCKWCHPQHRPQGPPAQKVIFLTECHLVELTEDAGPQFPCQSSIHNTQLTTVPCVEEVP

% Activity (FLIPR) [%] | EC50 (FLIPR) [nM] | Binder
100 | 6.9 | B1
82.4 | 1000 | B2
100 | 14.8 | B3
100 | 5.6 | B4
100 | 21.3 | B5
100 | 1.6 | B6

Target: rat NMUR2 (rat, UniProt Q9ESQ4 1-395)
Assay: cell-based or functional assay

Sequence of rat NMUR2 (Q9ESQ4 whole entry): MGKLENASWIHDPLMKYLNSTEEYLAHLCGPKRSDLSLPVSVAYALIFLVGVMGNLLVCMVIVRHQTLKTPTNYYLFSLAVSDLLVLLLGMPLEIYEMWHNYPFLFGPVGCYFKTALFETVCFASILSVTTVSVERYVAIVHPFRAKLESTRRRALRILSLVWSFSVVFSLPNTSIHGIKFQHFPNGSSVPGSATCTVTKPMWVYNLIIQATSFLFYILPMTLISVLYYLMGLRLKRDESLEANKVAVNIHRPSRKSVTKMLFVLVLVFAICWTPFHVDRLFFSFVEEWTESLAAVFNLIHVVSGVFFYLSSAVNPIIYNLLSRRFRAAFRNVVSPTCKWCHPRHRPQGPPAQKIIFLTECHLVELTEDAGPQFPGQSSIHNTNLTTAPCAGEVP

% Activity (FLIPR) [%] | EC50 (FLIPR) [nM] | Binder
98.8 | 17.1 | B1
52.2 | 986 | B2
100 | 16.9 | B3
100 | 8.7 | B4
90.2 | 47.4 | B5
99.2 | 7 | B6

Target: T3, rat NMUR1-ATG
Assay: cell-based or functional assay

% Activity (FLIPR) [%] | EC50 (FLIPR) [nM] | Binder
100 | 14 | B1
80.8 | 236 | B2
100 | 7.2 | B3
100 | 6.8 | B4
76.4 | 127 | B5
99.9 | 19.5 | B6

Target: T4, rat NMUR1-TTG
Assay: cell-based or functional assay

% Activity (FLIPR) [%] | EC50 (FLIPR) [nM] | Binder
96.4 | 39.1 | B1
67.7 | 222 | B2
93.8 | 24.4 | B3
100 | 12.8 | B4
39.8 | 1000 | B5
77.5 | 220 | B6

Target: human NMUR2 (human, UniProt Q9GZQ4 1-415)
Assay: cell-based or functional assay

Sequence of human NMUR2 (Q9GZQ4 whole entry): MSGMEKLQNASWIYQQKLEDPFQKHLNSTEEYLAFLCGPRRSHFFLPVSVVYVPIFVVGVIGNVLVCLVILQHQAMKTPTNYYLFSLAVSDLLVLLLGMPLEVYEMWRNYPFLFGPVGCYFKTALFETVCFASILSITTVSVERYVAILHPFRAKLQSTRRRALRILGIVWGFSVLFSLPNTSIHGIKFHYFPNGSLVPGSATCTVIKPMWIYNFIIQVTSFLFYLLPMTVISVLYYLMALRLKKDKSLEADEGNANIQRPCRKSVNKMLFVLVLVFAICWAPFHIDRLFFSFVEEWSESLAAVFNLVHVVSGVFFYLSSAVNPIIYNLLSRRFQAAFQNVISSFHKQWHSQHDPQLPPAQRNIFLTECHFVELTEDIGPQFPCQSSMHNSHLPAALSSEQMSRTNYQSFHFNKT

% Activity (FLIPR) [%] | EC50 (FLIPR) [nM] | Binder
105 | 6.5 | B1
63.9 | 1000 | B2
100 | 13 | B3
105 | 11.5 | B4
71.7 | 1000 | B5
97.9 | 24.2 | B6

Target: T5, human NMUR1
Assay: cell-based or functional assay

% Activity (FLIPR) [%] | EC50 (FLIPR) [nM] | Binder
95.6 | 10.2 | B1
34.4 | 1000 | B2
100 | 16.4 | B3
95.9 | 38.9 | B4
66.9 | 300 | B5
93.2 | 14.5 | B6
